In patent US20230340081A1 (Hoffmann-La Roche, published 2023):
Positions count from the first letter of the chain named.

B1: Bc1.180 (antibody)
heavy: not shown
light: EIVLTQSPGTLSLSPGNRATLSCRASQSVTSNYFAWYQHKPGQAPRVLIYGASSRATGIPDRFSGSGSGTDFTLTISRLEPEDFAVYYCQQFGSLPYTFGQGTKLEIKRTVAAPSVFIFPPSDEQLKSGTASVVCLLNNFYPREAKVQWKVDNALQSGNSQESVTEQDSKDSTYSLSSTLTLSKADYEKHKVYACEVTHQGLSSPVTKSFNRGEC
B2: Bc4.204 (antibody, human IgG1, lambda)
heavy: not shown
light: QSALTQPRSVSGSPGQSVTISCIGTNSDFGRYDYVSWYQQHPDKAPKLLIYDVSQRPSGVPDRFSGSKSGYTASLIISGLQADDEAEYFCCSYAGSFNLVFGGGTKVTVLGQPKAAPSVTLFPPSSEELQANKATLVCLISDFYPGAVTVAWKADSSPVKAGVETTTPSKQSNNKYAASSYLSLTPEQWKSHRSYSCQVTHEGSTVEKTVAPTECS
B3: Bc3.106 (antibody)
heavy: not shown
light: DIQMTQSPSSLSASVGDRVTITCRASQGIRNDLGWYQQKPGKAPKRLIYAASSLQSGVPSRFSGSGSGTEFTLTISSLQPEDFATYYCLQHNSYPRTFGQGTKVEIKRTVAAPSVFIFPPSDEQLKSGTASVVCLLNNFYPREAKVQWKVDNALQSGNSQESVTEQDSKDSTYSLSSTLTLSKADYEKHKVYACEVTHQGLSSPVTKSFNRGEC

How the values were obtained:
[1] = biological target: T1, Ayw S-HBs protein (ayw HBsAg particles, Engerix-B (Ayw)) (hepatitis B virus, ayw subtype); experiment: ELISA, AUC of binding curve; set-up: unit not given beside the values
[2] = biological target: T2, Adw S-HBs protein (adw HBsAg particles, GenHevac (Adw)) (hepatitis B virus, adw subtype); experiment: ELISA, AUC of binding curve; set-up: unit not given beside the values
T2 construct: also called GenHevac-B

[3] = biological target: T1, Ayw S-HBs protein (ayw HBsAg particles, …); experiment: ELISA on recombinant HBV vaccine particles
[4] = biological target: T2, Adw S-HBs protein (adw HBsAg particles, …); experiment: ELISA on recombinant HBV vaccine particles
[5] = biological target: T3, consensus S-HBs protein of HBV genotype A (ConsHBAg_A) (hepatitis B virus genotype A (consensus), UniProt P03141 175-400); experiment: flow cytometry, S-HBs-transfected 293-F cells
T3 construct: also called genotype A S-HBs

[6] = biological target: T4, consensus S-HBs protein of HBV genotype B (ConsHBAg_B) (hepatitis B virus genotype B (consensus), UniProt Q9PWW3 175-400); experiment: flow cytometry, S-HBs-transfected 293-F cells
T4 construct: also called genotype B S-HBs

[7] = biological target: T5, consensus S-HBs protein of HBV genotype I (ConsHBAg_I) (hepatitis B virus genotype I (consensus), UniProt P31873 175-400); experiment: flow cytometry, S-HBs-transfected 293-F cells
T5 construct: also called genotype I S-HBs
T5 chain: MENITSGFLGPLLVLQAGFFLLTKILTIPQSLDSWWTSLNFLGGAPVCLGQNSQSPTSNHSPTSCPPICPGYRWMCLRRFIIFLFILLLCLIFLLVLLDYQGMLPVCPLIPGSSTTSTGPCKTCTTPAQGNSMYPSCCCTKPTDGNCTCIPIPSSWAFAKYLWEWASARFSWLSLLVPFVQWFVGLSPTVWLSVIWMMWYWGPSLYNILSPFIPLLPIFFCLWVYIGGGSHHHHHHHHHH

[8] = biological target: T6, consensus S-HBs protein of HBV genotype D (ConsHBAg_D) (hepatitis B virus genotype D (consensus), UniProt P03138 164-389); experiment: flow cytometry, S-HBs-transfected 293-F cells
T6 construct: also called genotype D S-HBs; ConsD S-HBs

[9] = biological target: genotype D S-HBs mutant protein G145R (hepatitis B virus genotype D, UniProt P03138 164-389); experiment: flow cytometry, S-HBs-transfected 293-F cells
[10] = biological target: T7, consensus S-HBs protein of HBV genotype F (ConsHBAg_F) (hepatitis B virus genotype F (consensus), UniProt Q05496 175-400); experiment: flow cytometry, S-HBs-transfected 293-F cells
T7 construct: also called genotype F S-HBs
T7 sequence (Q05496 175-400, tags left off): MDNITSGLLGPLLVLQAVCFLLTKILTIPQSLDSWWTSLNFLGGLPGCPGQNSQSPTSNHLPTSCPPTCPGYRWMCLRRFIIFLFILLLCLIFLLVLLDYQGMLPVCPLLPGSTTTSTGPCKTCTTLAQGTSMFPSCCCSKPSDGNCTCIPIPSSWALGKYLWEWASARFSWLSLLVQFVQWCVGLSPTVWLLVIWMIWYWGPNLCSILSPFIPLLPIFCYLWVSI

[11] = biological target: genotype D S-HBs mutant protein M133T (hepatitis B virus genotype D, UniProt P03138 164-389); experiment: flow cytometry, S-HBs-transfected 293-F cells
[12] = biological target: T8, consensus S-HBs protein of HBV genotype E (ConsHBAg_E) (hepatitis B virus genotype E (consensus), UniProt Q69603 174-399); experiment: flow cytometry, S-HBs-transfected 293-F cells
T8 construct: also called genotype E S-HBs
T8 chain: T5 chain with N3S, K122R, P127L, N131T, Y134F, T140S, T143S, A159G, Y161F, V184A

[13] = biological target: T9, consensus S-HBs protein of HBV genotype G (ConsHBAg_G) (hepatitis B virus genotype G (consensus), UniProt Q9IBI3 174-399); experiment: flow cytometry, S-HBs-transfected 293-F cells
T9 construct: also called genotype G S-HBs

[14] = biological target: genotype D S-HBs mutant protein Y134V (hepatitis B virus genotype D, UniProt P03138 164-389); experiment: flow cytometry, S-HBs-transfected 293-F cells
[15] = biological target: genotype D S-HBs mutant protein T126A (hepatitis B virus genotype D, UniProt P03138 164-389); experiment: flow cytometry, S-HBs-transfected 293-F cells
[16] = biological target: T10, consensus S-HBs protein of HBV genotype H (ConsHBAg_H) (hepatitis B virus genotype H (consensus), UniProt Q8JMZ6 175-400); experiment: flow cytometry, S-HBs-transfected 293-F cells
T10 construct: also called genotype H S-HBs
T10 sequence (Q8JMZ6 175-400, tags left off): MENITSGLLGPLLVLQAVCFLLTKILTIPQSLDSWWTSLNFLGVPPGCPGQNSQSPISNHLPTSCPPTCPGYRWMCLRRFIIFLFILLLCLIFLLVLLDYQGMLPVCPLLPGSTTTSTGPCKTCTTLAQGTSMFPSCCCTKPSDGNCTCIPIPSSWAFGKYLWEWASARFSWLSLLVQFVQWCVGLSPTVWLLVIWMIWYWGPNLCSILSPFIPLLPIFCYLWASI

[17] = biological target: T11, consensus S-HBs protein of HBV genotype C (ConsHBAg_C) (hepatitis B virus genotype C (consensus), UniProt P03140 175-400); experiment: flow cytometry, S-HBs-transfected 293-F cells
T11 construct: also called genotype C S-HBs

[18] = biological target: genotype D S-HBs mutant protein N146S (hepatitis B virus genotype D, UniProt P03138 164-389); experiment: flow cytometry, S-HBs-transfected 293-F cells
[19] = biological target: HBV genotype D viruses (produced in HepG2.2.15 cell culture supernatant) (hepatitis B virus genotype D); experiment: cell-based or functional assay
[20] = biological target: T7, consensus S-HBs protein of HBV genotype …; experiment: flow cytometry on cells expressing genotype-specific S-HBs
[21] = biological target: T10, consensus S-HBs protein of HBV genotype …; experiment: as above

Binder | AUC (serotype binding) [1] | AUC (serotype binding) [2] | EC50 [3] | EC50 [4] | % of bound S-HBs-expressing cells [5] | % of bound S-HBs-expressing cells [6] | % of bound S-HBs-expressing cells [7] | % of bound S-HBs-expressing cells [8] | % of bound S-HBs-expressing cells [9] | % of bound S-HBs-expressing cells [10] | % of bound S-HBs-expressing cells [11] | % of bound S-HBs-expressing cells [12] | % of bound S-HBs-expressing cells [13] | % of bound S-HBs-expressing cells [14] | % of bound S-HBs-expressing cells [15] | % of bound S-HBs-expressing cells [16] | % of bound S-HBs-expressing cells [17] | % of bound S-HBs-expressing cells [18] | HBV-gD in vitro neutralization (IC50 µg/ml) [19] | also measured
B1 | 23 | 30 | 310 ng/mL | 65.3 ng/mL | 57% | 45% | 22% | 47% | 14% | 42% | 25% | 46% | 39% | 25% | 38% | 55% | 43% | 27% | 5e-08 µg/mL | 
B2 | 36 | 36 | 15 ng/mL | 15.6 ng/mL | 74% | 65% | 58% | 68% | 55% | 0% | 59% | 65% | 71% | 57% | 60% | 1% | 65% | 53% | 0.000229 µg/mL | binding result [20]: no binding; binding result [21]: no binding
B3 | 37 | 36 | 19.3 ng/mL | 42.1 ng/mL | 70% | 55% | 53% | 62% | 67% | 55% | 66% | 59% | 65% | 69% | 71% | 59% | 83% | 63% | 1.39e-07 µg/mL | 
